In patent US6613536B1, “Synthetic peptides and pharmaceutical compositions comprising them for the treatment of systemic lupus erythematosus” (Yeda Research and Development Co. Ltd., priority 1995, dated 2003):

Key:
[1] = target: T1, MHC class II products on splenic antigen-presenting cells (APC) (Mus musculus, UniProt P14434+P14483); assay: Inhibition of peptide binding to APC by anti-Ia mAb; parameters: concentration or dose not given beside the values
T1 construct: Splenic adherent cells (10^6/100 μl/tube) isolated from BALB/c, SJL, C3H.SW or C57BL/6 mice; from tissue; host or cells: mouse spleen adherent cells (BALB/c, SJL, C3H.SW, C57BL/6)
T1 sequence (P14434 24-256): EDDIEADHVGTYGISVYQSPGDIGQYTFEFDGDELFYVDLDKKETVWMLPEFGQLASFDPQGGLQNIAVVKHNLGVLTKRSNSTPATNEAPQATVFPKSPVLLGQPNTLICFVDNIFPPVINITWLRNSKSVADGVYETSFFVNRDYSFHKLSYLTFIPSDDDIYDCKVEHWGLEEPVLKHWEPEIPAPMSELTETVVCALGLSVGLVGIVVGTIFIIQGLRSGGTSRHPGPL
T1 sequence (P14483 28-265): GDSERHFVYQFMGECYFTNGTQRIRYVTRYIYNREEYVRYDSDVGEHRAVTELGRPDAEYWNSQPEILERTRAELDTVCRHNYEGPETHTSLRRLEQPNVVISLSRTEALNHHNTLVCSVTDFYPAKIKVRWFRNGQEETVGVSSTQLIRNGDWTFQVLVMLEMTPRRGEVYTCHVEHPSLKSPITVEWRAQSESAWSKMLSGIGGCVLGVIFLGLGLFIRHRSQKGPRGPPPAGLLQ
Protocol: (§1) Spleen cells suspended in RPMI 1640 medium containing 10% FCS were incubated in Petri dishes for 60 min at 37° C. Thereafter, non-adherent cells were removed, the plates were washed, and the adherent cells were collected from the plates using a rubber policeman (Costar, Mass., USA). These cells (1×10^6/100 μl/tube) were incubated with the biotinylated peptides in PBS containing 0.1% BSA (high purity grade, Amresco, Ohio, USA) for 16 hr at 37° C., followed by incubation with phycoerythrin (PE)-streptavidin (Jackson ImmunoResearch) for 30 min at 4° C. Thereafter the samples were incubated with biotinylated anti-streptavidin (1:60, Vector Laboratories, Burlingame, Calif.) and for an additional period with PE-streptavidin, all for 30 min at 4° C. The cells were washed twice with cold PBS/BSA solution after each incubation. Thereafter, cells were analyzed by flow cytometry using the FACSort cytometer and CELLQuest software (Beckton-Dickinson, Mountain View, Calif.). […]
(§2) Binding of the CDR-based peptides Ia and IIIa to APC was determined as described in Materials and Methods herein and the results are shown in Table 2. […] The results are shown in Table 3: Inhibition of binding was specific and ranged from 60% to 100%.

[2] = target: T2, MHC class II products on splenic antigen-presenting cells (APC) (Mus musculus, UniProt P01921+P04228); assay: as above; parameters: concentration or dose not given beside the values; settings: BALB/c, H-2 d
T2 construct: Splenic adherent cells (10^6/100 μl/tube) isolated from BALB/c, SJL, C3H.SW or C57BL/6 mice; from tissue; host or cells: mouse spleen adherent cells (BALB/c, SJL, C3H.SW, C57BL/6)
T2 sequence (P04228 24-256): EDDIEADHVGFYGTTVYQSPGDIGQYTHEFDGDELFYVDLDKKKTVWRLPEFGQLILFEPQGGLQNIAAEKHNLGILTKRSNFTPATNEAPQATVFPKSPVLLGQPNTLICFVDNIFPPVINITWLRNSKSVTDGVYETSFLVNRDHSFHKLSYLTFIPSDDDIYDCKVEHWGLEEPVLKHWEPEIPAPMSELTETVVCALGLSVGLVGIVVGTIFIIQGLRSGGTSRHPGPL
T2 sequence (P01921 28-265): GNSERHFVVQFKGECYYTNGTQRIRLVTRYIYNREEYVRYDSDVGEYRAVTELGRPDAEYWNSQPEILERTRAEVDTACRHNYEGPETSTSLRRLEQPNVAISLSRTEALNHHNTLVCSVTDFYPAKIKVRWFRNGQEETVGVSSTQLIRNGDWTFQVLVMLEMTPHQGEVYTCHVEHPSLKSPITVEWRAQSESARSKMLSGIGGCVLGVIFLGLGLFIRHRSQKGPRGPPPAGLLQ
Protocol: as §1, §2

SJL/J and BALB/c mice [3] = assay: Anti-DNA antibodies in sera of immunized mice (ELISA); type: in vivo, mouse; settings: for anti-DNA antibodies in sera: sera three months after booster; for levels of autoantibodies including anti-DNA and anti-NE antibodies: SJL mice immunized with IIIa, BALB/c mice immunized with Ia
Protocol: ELISA was utilized for the detection and quantitation of antibodies in experimental mice, and in humans. Polystyrene microtiter plates were coated with the relevant antigen or antibody, and sera dilutions or supernatants derived from the human or mouse cell cultures were added to the blocked plates. Specific binding was determined following the addition of peroxidase-conjugated antibodies against the appropriate immunoglobulin (Ig) (e.g. goat anti-human or goat anti-mouse peroxidase-conjugated antibodies) and the peroxidase substrate. Optical densities were read at 414 nm using an ELISA reader.
SJL/J and BALB/c female mice (6-8 week old) were immunized with 20 μg of peptide Ia or IIIa of the invention, or with a control peptide designated p278 (the peptide desinated Pep 278h described in published PCT International Application WO 94/03208) or with mAb 5G12 emulsified in complete Freund's adjuvant (CFA) in the foot pads. Three weeks later the mice received a booster injection with the same amount of peptide or mAb, in PBS. Thereafter, blood was drawn every two weeks. A fifth group included non-immunized mice.
ELISA was utilized to test the presence of the anti-DNA antibodies in the sera of the mice, as follows : Plates (Nunc) were coated for 90 min with 10 μg/ml of methylated BSA. Thereafter the plates were washed (all the washes were 3 times with PBS/0.05% Tween 20 (Sigma)) and incubated for an additional 90 min with 10 μg/ml of single-stranded DNA (calf thymus DNA (Sigma) that was heated for 15 min at 90° C. and fast-cooled). The plates were washed and blocked overnight with 1% ovalbumin in PBS (Sigma). Thereafter, the plates were washed and incubated with the sera of the mice diluted in the blocking reagent, followed by wash and incubation with 1:500 dilution of goat anti-mouse IgG (Fc receptor specific) polyclonal antibody conjugated to peroxidase. The plates were then washed and developed using ABTS substrate (Sigma), and the color was read using an ELISA reader at 414 nm. Results are expressed as mean OD of each mouse group (5 mice per group).

SJL/J and BALB/c mice [4] = assay: Anti-nuclear extract (NE) antibodies in sera of immunized mice (ELISA); type: in vivo, mouse
Protocol: Five groups of mice were immunized according to Example 2, and their sera were tested for the presence of anti-NE antibodies.
ELISA was utilized to test the presence of the anti-NE antibodies in the sera of the mice, as follows: Plates (Nunc) were coated with 5 μg/ml of HeLa cells NE for 90 min. Thereafter plates were washed and blocked, and ELISA was continued the next day, as described in Example 2 for anti-DNA antibodies.

[5] = C3H.SW, H-2 b, mAb anti I-A^b (34-5-3)
[6] = C3H.SW, H-2 b, mAb anti I-A^d (MKD6)
[7] = C57BL/6, H-2 b, mAb anti I-A^b (34-5-3)
[8] = C57BL/6, H-2 b, mAb anti I-A^d (MKD6)
[9] = BALB/c mice immunized with 20 μg in CFA plus booster
[10] = SJL/J mice immunized with 20 μg in CFA plus booster
[11] = BALB/c mice immunized as in Example 2
[12] = SJL/J mice immunized as in Example 2

| Substance | % inhibition of binding to APC [1, 5] | % inhibition of binding to APC [1, 6] | % inhibition of binding to APC [1, 7] | % inhibition of binding to APC [1, 8] | % inhibition of binding to APC ([2]; mAb anti I-A^b (34-5-3)) | % inhibition of binding to APC ([2]; mAb anti I-A^d (MKD6)) | anti-DNA antibodies in sera (SJL/J and BALB/c mice [3]; [9]) | levels of autoantibodies including anti-DNA and anti-NE antibodies (SJL/J and BALB/c mice [3]) | anti-DNA antibodies in sera (SJL/J and BALB/c mice [3]; [10]) | anti-NE antibodies in sera (SJL/J and BALB/c mice [4]; [11]) | anti-NE antibodies in sera (SJL/J and BALB/c mice [4]; [12]) |
| --- | --- | --- | --- | --- | --- | --- | --- | --- | --- | --- | --- |
| YYYCARFLWEPYAMDYWGQGS (YYCARFLWEPYAMDYWGQGS) [peptide IIIa, based on the CDR3 region of the VH chain of mAb 5G12] | 84.4% | 25% | 59.3% | 0% | 0% | 100% | did not show presence of anti-DNA antibodies | elevated levels of autoantibodies | high level of anti-DNA antibodies | very low level of anti-NE antibodies | high level of anti-NE antibodies |
| TGYYMQWVKQSPEKSLEWIG [peptide Ia] | 60% | 0% | 82% | 0% | 0% | 76.7% | show presence of anti-DNA antibodies | elevated levels of autoantibodies | Low levels of anti-DNA antibodies | high levels of anti-NE antibodies | lower levels of anti-NE antibodies |
